Test results taken from PMC10398351, “Structural and molecular insight into antibody recognition of dynamic neoepitopes in membrane tethered MUC1 of pancreatic cancer cells and secreted exosomes” (RSC Chemical Biology, 2023).

Tests used:
[1] = molecular target: MUC1 TRD-Tn (3); assay: SPR; Biacore 2000; MUC1 TRD models 2-4 immobilised on a CM5 chip by maleimide coupling through a C-terminal cysteine; SN-131 Fab injected; bivalent binding model
[2] = molecular target: MUC1-ST (4); assay: as above

Kd [1]: 3.78 nM | Kd [2]: 1.58 nM
B1: SN-131 Fab (Fab, V domains shown)
VH: QVQLQQSGAELARPGASVKLSCKASGYTFTNYGLSWVKQRTGQGLEWIGENHPGSGIIYHNEKFRGKATLTADKSSSTAYVQLSSLTSEDSAVYFCARSSGTRGFAYWGQGTLVTVSA
VL: DVLMTQTPLSLPVSLGDQASISCRSSQSIVHSNGNTYLEWYLQKPGQSPKLLIYKVSNRFSGVPDRFSGSGSGTDFTLKISRVEAEDLGVYYCFQGSHGPWTFGGGTKLEIK
